Laboratory results published in article PMC6856128 (Scientific Reports, 2019).

Molecular target: the molecule itself
Experiment: SEC

B1: Mycobacterium tuberculosis CysA2 (enzyme)
chain: MARCDVLVSADWAESNLHAPKVVFVEVDEDTSAYDRDHIAGAIKLDWRTDLQDPVKRDFVDAQQFSKLLSERGIANEDTVILYGGNNNWFAAYAYWYFKLYGHEKVKLLDGGRKKWELDGRPLSSDPVSRPVTSYTASPPDNTIRAFRDEVLAAINVKNLIDVRSPDEFSGKILAPAHLPQEQSQRPGHIPGAINVPWSRAANEDGTFKSDEELAKLYADAGLDNSKETIAYCRIGERSSHTWFVLRELLGHQNVKNYDGSWTEYGSLVGAPIELGS
stoichiometry N: 2
